Measurements as given in patent publication US20110008492.

Molecular target: kappa-casein of bovine (cow's) milk, P02668
Sequence (P02668 22-190): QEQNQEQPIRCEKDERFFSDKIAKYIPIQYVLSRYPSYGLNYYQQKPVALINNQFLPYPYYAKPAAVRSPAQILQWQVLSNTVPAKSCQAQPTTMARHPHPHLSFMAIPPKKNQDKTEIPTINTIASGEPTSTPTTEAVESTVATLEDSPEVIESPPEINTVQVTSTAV

B1: camel chymosin (Camelus dromedarius chymosin, recombinantly produced) (protein)
chain: GKVAREPLTSYLDSQYFGKIYIGTPPQEFTVVFDTGSSDLWVPSIYCKSNVCKNHHRFDPRKSSTFRNLGKPLSIHYGTGSMEGFLGYDTVTVSNIVDPNQTVGLSTEQPGEVFTYSEFDGILGLAYPSLASEYSVPVFDNMMDRHLVARDLFSVYMDRNGQGSMLTLGAIDPSYYTGSLHWVPVTLQQYWQFTVDSVTINGVAVACVGGCQAILDTGTSVLFGPSSDILKIQMAIGATENRYGEFDVNCGNLRSMPTVVFEINGRDYPLSPSAYTSKDQGFCTSGFQGDNNSELWILGDVFIREYYSVFDRANNRVGLAKAI
- Specific activity (IMCU/mg): 462 IMCU/mg
- Time to clotting: 12 to 13 min

B2: bovine (calf) chymosin B, recombinant (protein)
chain: GEVASVPLTNYLDSQYFGKIYLGTPPQEFTVLFDTGSSDFWVPSIYCKSNACKNHQRFDPRKSSTFQNLGKPLSIHYGTGSMQGILGYDTVTVSNIVDIQQTVGLSTQEPGDVFTYAEFDGILGMAYPSLASEYSIPVFDNMMNRHLVAQDLFSVYMDRNGQESMLTLGAIDPSYYTGSLHWVPVTVQQYWQFTVDSVTISGVVVACEGGCQAILDTGTSKLVGPSSDILNIQQAIGATQNQYGEFDIDCDNLSYMPTVVFEINGKMYPLTPSAYTSQDQGFCTSGFQSENHSQKWILGDVFIREYYSVFDRANNLVGLAKAI
- Specific activity (IMCU/mg): 223 IMCU/mg
- Time to clotting: 12 to 13 min
